Results from article PMC3220277 (Biochemistry, 2011).

What was measured:
Assay in all cases: fluorescence polarisation
[1] = target: wild-type human S100A4 (human, UniProt P26447 1-101)
[2] = target: C3R/C86S S100A4 (human, UniProt P26447 1-101, C3R | C86S)
[3] = target: C81A S100A4 (human, UniProt P26447 1-101, C81A)
[4] = target: C81S S100A4 (human, UniProt P26447 1-101, C81S)
Sequence of C81S S100A4 (P26447 whole entry C81S, one chain of several): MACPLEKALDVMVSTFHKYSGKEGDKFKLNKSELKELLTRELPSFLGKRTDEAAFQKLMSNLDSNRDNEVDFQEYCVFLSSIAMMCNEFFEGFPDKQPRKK

Sequence of C81A S100A4 (P26447 whole entry C81A, one chain of several): as the sequence (P26447 whole entry C81S, one chain of several) above, with S81A counted along it
Sequence of wild-type human S100A4 (P26447 whole entry, one chain of several): as the sequence (P26447 whole entry C81S, one chain of several) above, with S81C counted along it
Sequence of C3R/C86S S100A4 (P26447 whole entry C3R/C86S, one chain of several): as the sequence (P26447 whole entry C81S, one chain of several) above, with C3R, S81C, C86S counted along it

Kd [1]: 2.3 ± 0.3 µM | Kd [2]: 1.4 ± 0.1 µM | Kd [3]: 46.6 ± 3.2 µM | Kd [4]: 128 ± 15.7 µM
B1: FITC-Ahx-DAMNREVSSLKNKLRR-OH peptide (FITC-MIIA^1908−1923) (peptide)
peptide: DAMNREVSSLKNKLRR
HELM: PEPTIDE1{[O=C1OC2(c3ccc(O)cc3Oc3cc(O)ccc32)c2ccc(NC(=S)[*:2])cc21].[O=C(CCCCCN[*:1])[*:2]].D.A.M.N.R.E.V.S.S.L.K.N.K.L.R.R}$$$$V2.0
SMILES: CSCC[C@H](NC(=O)[C@H](C)NC(=O)[C@H](CC(=O)O)NC(=O)CCCCCNC(=S)Nc1ccc2c(c1)C(=O)OC21c2ccc(O)cc2Oc2cc(O)ccc21)C(=O)N[C@@H](CC(N)=O)C(=O)N[C@@H](CCCNC(=N)N)C(=O)N[C@@H](CCC(=O)O)C(=O)N[C@H](C(=O)N[C@@H](CO)C(=O)N[C@@H](CO)C(=O)N[C@@H](CC(C)C)C(=O)N[C@@H](CCCCN)C(=O)N[C@@H](CC(N)=O)C(=O)N[C@@H](CCCCN)C(=O)N[C@@H](CC(C)C)C(=O)N[C@@H](CCCNC(=N)N)C(=O)N[C@@H](CCCNC(=N)N)C(=O)O)C(C)C
